Reference: patent US20220135682A1

Assays:
Human ICOS (human) [1] = target: Human ICOS (human) (UniProt Q9Y6W8); assay: in vivo target engagement, flow cytometry on human peripheral blood CD4+ T cells, 0.1 mg/kg, Day 42
Human ICOS (human) [2] = target: Human ICOS (human) (UniProt Q9Y6W8); assay: in vivo target engagement, flow cytometry on human peripheral blood CD4+ T cells, 0.1 mg/kg, Day 42, average of three subjects
Human ICOS (human) [3] = target: Human ICOS (human) (UniProt Q9Y6W8); assay: in vivo target engagement, flow cytometry on human peripheral blood CD4+ T cells, average of three subjects after first i.v. dose of 0.1 mg/kg

Human ICOS (human), sequence (Q9Y6W8 21-199): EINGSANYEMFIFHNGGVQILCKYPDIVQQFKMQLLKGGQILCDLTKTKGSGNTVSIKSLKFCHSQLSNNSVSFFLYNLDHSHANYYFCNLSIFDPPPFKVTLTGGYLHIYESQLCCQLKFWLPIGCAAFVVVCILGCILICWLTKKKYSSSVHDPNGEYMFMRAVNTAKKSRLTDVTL

target engagement (Human ICOS (human) [1]): < 40%
target engagement (Human ICOS (human) [2]): 10%
target engagement (Human ICOS (human) [3]): 100%
Substance: JTX-2011 (antibody)
